Experimental data: article PMC2829314

Target: LRRTM2-mVenus (full-length LRRTM2 mVenus-fusion protein) (UniProt O43300)
Assay: saturation binding to cells

Sequence of UniProt O43300 (O43300 34-516): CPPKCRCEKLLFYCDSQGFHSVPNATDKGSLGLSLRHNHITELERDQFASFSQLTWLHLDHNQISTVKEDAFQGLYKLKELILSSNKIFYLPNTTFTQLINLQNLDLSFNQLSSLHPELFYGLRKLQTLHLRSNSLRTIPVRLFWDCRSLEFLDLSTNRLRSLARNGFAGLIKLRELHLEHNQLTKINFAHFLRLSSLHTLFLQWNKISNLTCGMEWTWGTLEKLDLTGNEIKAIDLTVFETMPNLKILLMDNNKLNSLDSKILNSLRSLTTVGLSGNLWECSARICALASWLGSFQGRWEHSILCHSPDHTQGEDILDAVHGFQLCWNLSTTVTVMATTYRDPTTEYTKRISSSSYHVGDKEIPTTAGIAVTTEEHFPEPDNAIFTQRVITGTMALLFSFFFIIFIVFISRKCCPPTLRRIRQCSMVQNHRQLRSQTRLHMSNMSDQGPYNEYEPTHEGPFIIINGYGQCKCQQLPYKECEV

Kd: 5.83 nM
Substance: IgNrx1β^SS4− (Ig-fusion protein of neurexin-1β lacking an insert in splice site #4) (Fc fusion)
